Test results reported in the supplement of paper PMC9732359.
± gives the uncertainty stated by the source.

Test: protein stability index of a GFP-peptide fusion (yeast GPS) (PSI 1-4); higher = more stable; sorted into four equal gates, so the index is relative within each strain
Procedure, shortened: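 Each library plasmid carries Cherry plus GFP with a tiled 17-residue yeast protein peptide fused downstream, and the pooled library was carried in yeast. Mid-log cultures in leucine-free medium were sorted into four equal gates by GFP/Cherry ratio. Reads from Illumina sequencing of PCR-amplified plasmids from each gate were assigned to strains by barcodes. Per peptide, the protein stability index was computed as the summed products of gate read frequency and gate number.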

Sequence	protein stability index (doa10∆)	protein stability index (pdr5∆)	protein stability index (san1∆)	protein stability index (ubr1∆)
SSEQFNVWDWNNWTSAT [GAL11]	3.08 ± 0.1	3.17 ± 0.095	3.14 ± 0.067	3.1 ± 0.083
SSFKKNLLKFITSNHKS [RPN3]	1.46 ± 0.053	1.5 ± 0.049	1.3 ± 0.064	1.83 ± 0.092
SSFRPCPLSQQFCGIKE [BRR2]	2.45 ± 0.073	1.9 ± 0.054	2.38 ± 0.068	2.31 ± 0.037
SSKTRNVLNRIQELEDQ [ITC1]	1.35 ± 0.088	1.16 ± 0.051		1.18 ± 0.058
SSLFLDGLEKAAFNGVT [FAS2]	2.3 ± 0.06	2.12 ± 0.062	2.02 ± 0.092	2.88 ± 0.063
SSLFQEKLLETNVSKQN [ECM29]	2.74 ± 0.11	2.55 ± 0.1	2.35 ± 0.065	2.52 ± 0.071
SSLIKAGLDKGISINNM [RPO31]	2.65 ± 0.064	2.7 ± 0.079	2.76 ± 0.066	2.95 ± 0.058
SSLSFGPENALNVYHYF [YJL039C/NUP192]	1.94 ± 0.031	2.11 ± 0.038	2.04 ± 0.05	2.67 ± 0.029
SSLVRSCGEEEFFSTNW [REC8]	3.49 ± 0.23	3.52 ± 0.18		3.18 ± 0.2
SSNQSAPVETKKKRFEI [HRT1]	3.18 ± 0.065	3.3 ± 0.079	3.08 ± 0.069	3.27 ± 0.07
SSPTLATGFGAHMANPL [PRE4]	3.26 ± 0.09	3.07 ± 0.097	2.98 ± 0.068	2.65 ± 0.097
SSQFVRLASEPGIISIT [YMR129W/POM152]	2.04 ± 0.094	2.14 ± 0.062	1.99 ± 0.12	1.78 ± 0.04
SSQPLEPLSDTEEPDLA [DSN1]	2.74 ± 0.062	2.69 ± 0.06	3.25 ± 0.037	2.36 ± 0.07
SSTDIPSYTHVLISKLS [RRI1]	2.13 ± 0.045	2.42 ± 0.048	2.42 ± 0.049	2.35 ± 0.037
SSVTSDSMKYTISSLFV [RPC82]	1.93 ± 0.046	2.3 ± 0.043	2.14 ± 0.06	2.16 ± 0.042
STANPNIKLLNNRMGSY [POP1]	3.01 ± 0.086	3.16 ± 0.083	2.56 ± 0.088	3.04 ± 0.052
STIEKDMKEYDSDKGSK [SMC2]	3.25 ± 0.1	3.44 ± 0.071	3.37 ± 0.056	3.44 ± 0.075
STKIIMLLLNDSVENSS [SRB8]	2.63 ± 0.074	2.15 ± 0.07	2.6 ± 0.077	2.74 ± 0.088
STLMPGGVDVGPSVESY [SNF5]	1.63 ± 0.083	1.87 ± 0.083	2 ± 0.16	2.68 ± 0.087
STLSNWSSEFAKWAPTL [SNF2]	2.9 ± 0.054	2.45 ± 0.06	2.85 ± 0.055	2.26 ± 0.047
STMTEPVKQSFIRKYIN [GAL11]	2.56 ± 0.082	2.2 ± 0.065	1.96 ± 0.092	2.47 ± 0.053
STNSNSKPSTASPSAHT [RPN4]	2.63 ± 0.055	3.01 ± 0.086	2.75 ± 0.061	2.82 ± 0.042
STRLKKACKTADKLVNV [SRP68]	3.38 ± 0.081	3.26 ± 0.073	2.98 ± 0.074	3.18 ± 0.052
STSYHLNSTLESLYDLI [MED6]	2.86 ± 0.12	2.62 ± 0.094	3 ± 0.084	2.51 ± 0.12
SVARVEDHDVHSNESSN [IRR1]	2.7 ± 0.059	2.99 ± 0.061	3.01 ± 0.052	2.81 ± 0.058
SVEEVILERAYKKLDID [SNF2]	3.23 ± 0.16	3.07 ± 0.24	2.95 ± 0.13	

Sequence	protein stability index (doa10∆)	protein stability index (pdr5∆)	protein stability index (san1∆)	protein stability index (ubr1∆)
SVFGFRTQFGGGKSVGF [RPS24A]	2.56 ± 0.13	2.23 ± 0.076	3.31 ± 0.076	2.77 ± 0.088
SVFKGGMQNLIKKKKKK [SRP14]	2 ± 0.18	3.05 ± 0.3		
SVIPEVDREAMLKPNII [YCG1]	3.06 ± 0.12	3.31 ± 0.14	3.08 ± 0.14	3.05 ± 0.12
SVRLQRFYQLGVDLKLK [CSN12]	3.2 ± 0.21	3.13 ± 0.23	3.01 ± 0.24	3.06 ± 0.12
SVRSLQKRIENGGNSVI [SRP68]	1.7 ± 0.085	1.82 ± 0.064	2.29 ± 0.096	1.85 ± 0.1
SVTAQVYKIALRLTEQK [RPC82]	1.79 ± 0.15	2.19 ± 0.14	2.22 ± 0.19	
SVTVSQGNYVTEDIREG [YMR129W/POM152]	2.82 ± 0.061	2.91 ± 0.064	2.87 ± 0.061	2.85 ± 0.05
SVYGLDDISRQVARTNL [ROX3]	2.06 ± 0.058	2.7 ± 0.059	1.96 ± 0.1	2.94 ± 0.046
SWNLTGTILSSAGDDGK [YGL100W/SEH1]	1.37 ± 0.062	1.88 ± 0.068	3.03 ± 0.077	2.98 ± 0.084
SWYLNTFDGIRMSSEEV [GRR1]	2.73 ± 0.061	2.1 ± 0.059	2.13 ± 0.066	2.27 ± 0.043
SYDFLPLSNIKALLFFN [RPN12]	2.14 ± 0.047	1.96 ± 0.048	1.42 ± 0.08	1.82 ± 0.044
SYELIKEECQIEDDGII [CSN9]	2.77 ± 0.11	3.01 ± 0.088	3.06 ± 0.069	3.1 ± 0.054
SYLETLTALGKEKEKER [MED2]	2.57 ± 0.16	1.93 ± 0.12	2.34 ± 0.17	2.92 ± 0.057
SYQKAWDLLQSGSQNIS [RPN12]	1.18 ± 0.096	1.11 ± 0.084	1.2 ± 0.13	1.08 ± 0.14
SYQPMYQRPMQVQGQQQ [SSN3]	1.46 ± 0.043	1.71 ± 0.06	1.92 ± 0.11	1.89 ± 0.054
SYSPTSPSYSPTSPNYS [RPO21]	2.88 ± 0.065	2.96 ± 0.056	2.84 ± 0.054	3.066 ± 0.028
SYSPTSPSYSPTSPSYS [RPO21]	2.53 ± 0.042	2.66 ± 0.041	2.78 ± 0.037	2.76 ± 0.034
SYVNYRHMALLVDVMTT [RPO21]	1.23 ± 0.049	1.25 ± 0.049	1.2 ± 0.062	1.18 ± 0.034
TAEINCFMHLLVQLFLW [RPN3]	1.77 ± 0.063	2.05 ± 0.051	1.68 ± 0.14	2.73 ± 0.072
TALDAEGAARGTSVYLV [DIS3]	2.24 ± 0.13	1.58 ± 0.082	2.47 ± 0.12	2.28 ± 0.096
TAPANTTDANGSKENYQ [MED2]	2.08 ± 0.066	2.06 ± 0.058	3.02 ± 0.047	2.86 ± 0.066
TATAATNGNNAGGGSNK [MED6]	3.23 ± 0.12	3.41 ± 0.085	3.27 ± 0.11	3.46 ± 0.1
TATGIKVFSLDPQYLVD [ASC1]	2.52 ± 0.049	2.67 ± 0.044	2.89 ± 0.039	2.58 ± 0.032
TAVATLLKELSKNAQFI [SMC3]	2.88 ± 0.071	2.66 ± 0.052	2.8 ± 0.049	2.66 ± 0.048
TAVLSTTARAKARAKKT [RPN2]	3.31 ± 0.11	3.17 ± 0.077	3.15 ± 0.075	3.19 ± 0.072
